{
  "source": "paper doi:10.1101/2025.03.12.642038",
  "about": "“Structural, biophysical and biological analysis and characterisation of IRF4 DNA-binding domain mutations associated with multiple myeloma”",
  "test_in_all_cases": "SPR steady state; FP: PBS + 0.05% Tween20, 5 nM DNA, 1 h, room temperature; SPR: Biacore S200, SA chip, protein 0.1-4500 nM, running buffer not given in material; errors are SD",
  "key": {"IRF4 DBD D106Y": {"molecular_target": "T1, IRF4 DBD D106Y (Homo sapiens, UniProt Q15306 20-132, D106Y)", "T1 sequence": "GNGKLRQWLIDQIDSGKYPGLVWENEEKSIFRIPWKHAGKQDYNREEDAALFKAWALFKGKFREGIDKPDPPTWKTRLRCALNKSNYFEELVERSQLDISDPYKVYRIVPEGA", "details": "protein: recombinant; tags: N-terminal His8-linker-His8-TEV, cleaved; label: 3' biotin; hairpin, TTTT loop"}, "IRF4 DBD T95A": {"molecular_target": "T2, IRF4 DBD T95A (Homo sapiens, UniProt Q15306 20-132, T95A)", "T2 sequence": "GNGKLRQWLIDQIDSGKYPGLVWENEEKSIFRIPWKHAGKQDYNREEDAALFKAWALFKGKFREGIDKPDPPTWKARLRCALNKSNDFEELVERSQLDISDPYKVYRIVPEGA", "details": "protein: recombinant; tags: N-terminal His8-linker-His8-TEV, cleaved; label: 3' biotin; hairpin, TTTT loop"}, "IRF4 DBD K123R": {"molecular_target": "T3, IRF4 DBD K123R (Homo sapiens, UniProt Q15306 20-132, K123R)", "T3 sequence": "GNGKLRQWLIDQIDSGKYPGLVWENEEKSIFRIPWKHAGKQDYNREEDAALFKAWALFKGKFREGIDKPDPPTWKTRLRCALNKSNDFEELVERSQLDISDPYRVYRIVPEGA", "details": "protein: recombinant; tags: N-terminal His8-linker-His8-TEV, cleaved; label: 3' biotin; hairpin, TTTT loop"}, "IRF4 DBD S114N": {"molecular_target": "T4, IRF4 DBD S114N (Homo sapiens, UniProt Q15306 20-132, S114N)", "T4 sequence": "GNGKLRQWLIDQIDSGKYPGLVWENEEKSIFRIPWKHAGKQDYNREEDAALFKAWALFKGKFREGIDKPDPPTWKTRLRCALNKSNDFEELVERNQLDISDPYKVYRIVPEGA", "details": "protein: recombinant; tags: N-terminal His8-linker-His8-TEV, cleaved; label: 3' biotin; hairpin, TTTT loop"}, "IRF4 DBD D117A": {"molecular_target": "T5, IRF4 DBD D117A (Homo sapiens, UniProt Q15306 20-132, D117A)", "T5 sequence": "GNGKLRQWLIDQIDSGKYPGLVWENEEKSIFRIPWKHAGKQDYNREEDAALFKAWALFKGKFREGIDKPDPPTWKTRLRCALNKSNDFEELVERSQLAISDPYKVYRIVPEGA", "details": "protein: recombinant; tags: N-terminal His8-linker-His8-TEV, cleaved; label: 3' biotin; hairpin, TTTT loop"}, "IRF4 DBD C99S": {"molecular_target": "T6, IRF4 DBD C99S (Homo sapiens, UniProt Q15306 20-132, C99S)", "T6 sequence": "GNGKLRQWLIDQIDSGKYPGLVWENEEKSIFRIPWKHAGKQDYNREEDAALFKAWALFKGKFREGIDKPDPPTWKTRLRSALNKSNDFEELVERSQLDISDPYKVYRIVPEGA", "details": "protein: recombinant; label: 3' biotin; hairpin, TTTT loop"}, "IRF4 DBD C99R": {"molecular_target": "T7, IRF4 DBD C99R (Homo sapiens, UniProt Q15306 20-132, C99R)", "T7 sequence": "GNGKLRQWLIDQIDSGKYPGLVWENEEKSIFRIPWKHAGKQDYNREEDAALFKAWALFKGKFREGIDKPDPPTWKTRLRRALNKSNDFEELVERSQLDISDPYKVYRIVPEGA", "details": "protein: recombinant; tags: N-terminal His8-linker-His8-TEV, cleaved; label: 3' biotin; hairpin, TTTT loop"}, "IRF4 DBD K59R": {"molecular_target": "T8, IRF4 DBD K59R (Homo sapiens, UniProt Q15306 20-132, K59R)", "T8 sequence": "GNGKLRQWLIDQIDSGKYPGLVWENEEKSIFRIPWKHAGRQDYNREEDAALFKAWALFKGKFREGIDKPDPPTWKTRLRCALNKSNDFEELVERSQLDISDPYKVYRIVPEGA", "details": "protein: recombinant; tags: N-terminal His8-linker-His8-TEV, cleaved; label: 3' biotin; hairpin, TTTT loop"}, "IRF4 DBD L70V": {"molecular_target": "T9, IRF4 DBD L70V (Homo sapiens, UniProt Q15306 20-132, L70V)", "T9 sequence": "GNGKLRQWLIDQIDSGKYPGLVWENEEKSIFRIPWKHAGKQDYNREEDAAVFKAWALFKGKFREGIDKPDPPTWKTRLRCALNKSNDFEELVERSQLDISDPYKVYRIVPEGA", "details": "protein: recombinant; tags: N-terminal His8-linker-His8-TEV, cleaved; label: 3' biotin; hairpin, TTTT loop"}, "IRF4 DBD C99A": {"molecular_target": "T10, IRF4 DBD C99A (Homo sapiens, UniProt Q15306 20-132, C99A)", "T10 sequence": "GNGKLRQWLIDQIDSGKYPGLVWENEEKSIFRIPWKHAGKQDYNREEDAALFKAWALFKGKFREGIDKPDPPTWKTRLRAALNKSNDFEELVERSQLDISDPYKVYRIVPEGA", "details": "protein: recombinant; tags: N-terminal His8-linker-His8-TEV, cleaved; label: 3' biotin; hairpin, TTTT loop"}},
  "data": [
    {"binder": "CTTGGTTTCACTTCCTGCGTTTTCGCAGGAAGTGAAACCAAG (structured_DNA)", "note": "[IRE hairpin (biotin)]", "values": [
      {"measurement": "Kd", "setting": "IRF4 DBD D106Y", "result": "178 ± 43", "unit": "nM"},
      {"measurement": "Kd", "setting": "IRF4 DBD T95A", "result": "186 ± 82", "unit": "nM"},
      {"measurement": "Kd", "setting": "IRF4 DBD K123R", "result": "491 ± 48", "unit": "nM"},
      {"measurement": "Kd", "setting": "IRF4 DBD S114N", "result": "291 ± 79", "unit": "nM"},
      {"measurement": "Kd", "setting": "IRF4 DBD D117A", "result": "301 ± 87", "unit": "nM"},
      {"measurement": "Kd", "setting": "IRF4 DBD C99S", "result": "338 ± 173", "unit": "nM"},
      {"measurement": "Kd", "setting": "IRF4 DBD C99R", "result": "546 ± 174", "unit": "nM"},
      {"measurement": "Kd", "setting": "IRF4 DBD K59R", "result": "275 ± 93", "unit": "nM"},
      {"measurement": "Kd", "setting": "IRF4 DBD L70V", "result": "167 ± 82", "unit": "nM"},
      {"measurement": "Kd", "setting": "IRF4 DBD C99A", "result": "173 ± 60", "unit": "nM"}
    ]}
  ]
}
